Experimental data as given in the emibetuzumab library of Makowski et al. (2022).

B1: VH:VL chains; a variant is named by its letters at X, in order (parent)
chain 1: QVQLVQSGAEVKKPGASVKVSCKASGYTFTDYXMHWVRQAPGQGLEWMGXVNPNXXXTTYNQKFEGRVTMTTDTSTSTAYMELRSLRSDDTAVYYCARXNXLDXWGQGTTVTVSS
chain 2: DIQMTQSPSSLSASVGDRVTITCSVSSSVSSIYLHWYQQKPGKAPKLLIYSTSNLASGVPSRFSGSGSGTDFTLTISSLQPEDFATYYCQVYSGYPLTFGGGTKVEIK

Variants of: B1
Assay: yeast display scFab, FACS + sequencing
Procedure, shortened: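 For the non-specific binding call, a heavy-chain CDR mutant scFab library on the yeast surface was FACS-sorted and samples from two replicates were deep sequenced. Cells were labelled with anti-Myc and either biotinylated ovalbumin (260 μg/mL in PBSB, 3 h, room temperature) or soluble membrane proteins (130 μg/mL, 20 min on ice), with gates on the top 25% and bottom 10% of binders. With membrane protein and ovalbumin samples pooled, a sequence in ≥3 of 4 positive samples and no negatives was scored positive, and the converse rule scored negatives.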

Row | Variant | non-specific binding call
1 | YKGADFGD | binds
2 | FKGEGAGV | no binding
3 | YKGRGAAS | binds
4 | YKGRGAAF | binds
5 | YKGRGAAY | binds
6 | AKGGGDVV | no binding
7 | VKGGGFGA | binds
8 | YKGKGFAA | binds
9 | SKGRGAGS | binds
10 | YKGGGYGA | binds
11 | VKERGSVD | binds
12 | YKGRAALY | binds
13 | VKGRAAVA | no binding
14 | FKGGSSAA | binds
15 | VKGASDVA | no binding
16 | VKGASDVV | no binding
17 | YKERASGV | binds
18 | VKGGAAVY | no binding
19 | YKGRASAV | binds
20 | SKGRADVY | no binding
21 | SKERGDGA | no binding
22 | SKGEGDWA | no binding
23 | VKGKGDVY | no binding
24 | VKGKDSGD | binds

Row | Variant | non-specific binding call
25 | SKERGDVA | no binding
26 | SKERGDVD | no binding
27 | SKERGDVV | no binding
28 | VKGAGAAS | binds
29 | YKGKGAGS | binds
30 | YKGKGAGF | binds
31 | FKGEGDAA | no binding
32 | YKETGYAV | binds
33 | YKGAGAWA | binds
34 | YKGAAFWA | binds
35 | VKGRADLY | no binding
36 | VKGRADLV | no binding
37 | VKGKGDLA | no binding
38 | YKGGSAGA | binds
39 | YKGGSAGY | binds
40 | DKGGSDVV | no binding
41 | DKGGSDVA | no binding
42 | FKGKGSGA | binds
43 | FKGRDSGS | binds
44 | VKETSVLF | binds
45 | SKGASFAY | binds
46 | FKGKSSSD | binds
47 | VKGKDVGY | binds
48 | YKGGSAAA | binds

Row | Variant | non-specific binding call
49 | FKGEGDSA | no binding
50 | FKGKGSAD | binds
51 | DKGEGDLA | no binding
52 | VKEKGSLF | binds
53 | VKEKGYLV | no binding
54 | YKGEGFSS | binds
55 | VKGKGASA | binds
56 | VKGAGSVV | no binding
57 | VKGRGAAY | binds
58 | YKERDVGV | binds
59 | DKGGAVWT | no binding
60 | DKGEGAGV | no binding
61 | VKGKGDWV | no binding
62 | YKGGSFGV | binds
63 | SKGKGSSA | binds
64 | FKGKGVGD | binds
65 | YKGGGAGA | binds
66 | YKGGGAGS | binds
67 | VKGRAFSV | no binding
68 | YKGKGAWA | binds
69 | YKGKGAWV | binds
70 | YKGKGAWS | binds
71 | YKGKGAWD | binds
72 | YKGKGAWY | binds

Row | Variant | non-specific binding call
73 | VKGKGDAV | no binding
74 | FKGEGYGV | binds
75 | YKGRDDVA | no binding
76 | YKGGSSAD | binds
77 | YKGGSSAA | binds
78 | YKGKGFGA | binds
79 | YKGKGFGD | binds
80 | YKGKGFGF | binds
81 | YKGKGYVD | binds
82 | VKGAGDLA | no binding
83 | FKGEGSSA | no binding
84 | AKGRADVY | no binding
85 | VKGRADSF | no binding
86 | VKGRADSV | no binding
87 | VKGRADSA | no binding
88 | DKGGSSLD | no binding
89 | SKGGSAWD | binds
90 | AKGEDSVF | no binding
91 | FKGEGSLY | no binding
92 | FKGEGSLV | no binding
93 | VKGRASGF | no binding
94 | VKGRASGY | no binding
95 | FKGGNVGV | binds
96 | YKGEADGA | no binding

Row | Variant | non-specific binding call
97 | VKGKGSAA | binds
98 | YKGEGYGV | binds
99 | YKERGDVV | no binding
100 | YKERGDVF | binds
101 | SKGKGAGF | binds
102 | SKGKGAGD | binds
103 | VKEKGDVA | no binding
104 | YKGAGSAD | binds
105 | SKERGDWY | no binding
106 | SKERGDWV | no binding
107 | AKGRAAAS chain 1 D103N | binds
108 | SKGKGVGA | binds
109 | VKGKSSWS | binds
110 | SKGKGSAA | binds
111 | DKGGSAVV | no binding
112 | DKGGGDVA | no binding
113 | YKGAGDVV | no binding
114 | AKGKGAAV | binds
115 | YKGKGSGA | binds
116 | YKGKGSGF | binds
117 | YKGKGSGS | binds
118 | FKGGGAVY | binds
119 | FKGEGFGS | binds
120 | VKGGNVGV | binds

Row | Variant | non-specific binding call
121 | YKGKGSLF | binds
122 | YKGKGSLD | binds
123 | YKGKGSLA | binds
124 | YKGKGSLY | binds
125 | VKGESAGV | no binding
126 | FKGKGAAV | binds
127 | FKGKGAAF | binds
128 | YKGKGDGD | binds
129 | FKGEGDGV | no binding
130 | VKGRADWD | no binding
131 | VKGRADWF | no binding
132 | VKGRADWY | no binding
133 | VKGRADWV | no binding
134 | VKGRADWA | no binding
135 | YKGKGALA | binds
136 | YKGKGALD | binds
137 | YKGRAAGS | binds
138 | YKGRGALF | binds
139 | YKGRGALA | binds
140 | VKGRASWS | no binding
141 | DKGEGAAA | no binding
142 | VKGASDWA | no binding
143 | AKGGAAVY | no binding
144 | VKGEGYGA | binds

Row | Variant | non-specific binding call
145 | VKGGGYGA | binds
146 | FKGKGAGD | binds
147 | VKEKGDLA | no binding
148 | FKGRGAAD | binds
149 | FKGRGAAS | binds
150 | FKGRGAAV | binds
151 | FKGRGAAY | binds
152 | SKGKGAWY | binds
153 | YKGGDDLA | no binding
154 | DKGGGFAV | no binding
155 | VKGKGAAF | binds
156 | VKGRGAGS | binds
157 | VKGRGAGY | binds
158 | FKGKGAVA | binds
159 | FKGKGAVV | binds
160 | SKGRGALA | binds
161 | DKERGDLV | no binding
162 | YKGKGVGV | binds
163 | SKGKGSWD | binds
164 | YKGKGSWD | binds
165 | YKGKGSWA | binds
166 | VKGRAYGV | no binding
167 | YKGGGALD | binds
168 | YKGEGDGV | no binding

Row | Variant | non-specific binding call
169 | VKGRADGS | no binding
170 | VKGRADGV | no binding
171 | VKEKGDSA | no binding
172 | FKGKGALD | binds
173 | VKGEAAWD | binds
174 | YKGEGDLV | no binding
175 | YKGEGDLA | no binding
176 | FKGKGFGA | binds
177 | SKGENALY | no binding
178 | FKGEGDVA | no binding
179 | FKGEGDVY | no binding
180 | YKGGSSGV | binds
181 | YKGKGAVA | binds
182 | YKGEDDVY | no binding
183 | AKERGDGV | no binding
184 | YKGRDALD | binds
185 | FKGRGAGS | binds
186 | YKGAAFAD | binds
187 | YKGAGALD | binds
188 | SKERGDAA | no binding
189 | FKGKGSWD | binds
190 | YKGRDASD | binds
191 | VKGKGAWD | binds
192 | VKEKGDWV | no binding

Row | Variant | non-specific binding call
193 | YKGGSSLD | binds
194 | VKGRADVF | no binding
195 | VKGRADVD | no binding
196 | YKGGGSAV | binds
197 | YKGKGSSY | binds
198 | YKGKGSSS | binds
199 | VKGRASSV | no binding
200 | YKGRGAGF | binds
201 | YKGRGAGY | binds
202 | YKGRDAWD | binds
203 | VKGGSFGS | binds
204 | YKGAASGV | binds
205 | VKERGAVA | no binding
206 | FKGRGALA | binds
207 | VKERGDAV | no binding
208 | VKGRADAV | no binding
209 | VKGRADAD | no binding
210 | VKGRADAA | no binding
211 | FKGKGAWY | binds
212 | YKGKDSSV | no binding
213 | YKGGSDVY | binds
214 | FKGEGAAD | no binding
215 | AKGKASSD | binds
216 | YKGKSAWV | binds

Row | Variant | non-specific binding call
217 | YKGKSAWD | binds
218 | YKGKGDAD | binds
219 | FKGEDAVA | no binding
220 | YKGKGSAV | binds
221 | YKGKGSAA | binds
222 | SKERGSLV | no binding
223 | YKGKGSVS | binds
224 | YKGKGSVA | binds
225 | YKGKGSVV | binds
226 | YKGKDSVD | no binding
227 | VKERGDGV | no binding
228 | FKGGGFGA | binds
229 | VKGRASAF | no binding
230 | VKGRASAS | no binding
231 | YKGGSAWY | binds
232 | VKGEGDVY | no binding
233 | DKGEGDGA | no binding
234 | SKERGDLV | no binding
235 | VKGASDGA | no binding
236 | YKGEGDVV | no binding
237 | SKGASAWA | binds
238 | DKGGAAGD | no binding
239 | YKGRDAGD | binds
240 | SKGKGAVA | binds
